Results reported in publication PMC6566107, “Molecular Analysis of Protein-Protein Interactions in the Ethylene Pathway in the Different Ethylene Receptor Subfamilies” (Frontiers in Plant Science, 2019).

How the values were obtained:
[1] = target: T1, Arabidopsis thaliana ethylene receptor ETR2 (AtETR2), full-length, type-II subfamily (Arabidopsis thaliana, UniProt Q0WPQ2 1-773, Alexa Fluor 488 succinimidyl-ester label where used as the labeled partner in MST); test: MST; 40 nM Alexa Fluor 488-labeled receptor (AtETR1 or AtETR2); unlabeled AtETR1 or AtETR2 (4 µM to 0.49 nM) or ETR1-TM C4SC6S (16 µM to 0.98 nM) titrated; 0.0075% (w/v) FosCholine-16; 60% MST power; 1:1 model; details: both partners purified
T1 construct: ETR2, Arabidopsis thaliana, UniProt Q0WPQ2, full-length, codon optimized cDNA according to NCBI NM_113216.3; The thrombin site of pGEX-4T-1 was changed to a TEV site (ENLYFQG); No cleavage is described; The purified protein runs at an apparent 120 kDa, so GST is probably still attached; The same construct was used with and without the Alexa Fluor 488 label; source: E. coli C43 (DE3), solubilised …
T1 sequence (looked up): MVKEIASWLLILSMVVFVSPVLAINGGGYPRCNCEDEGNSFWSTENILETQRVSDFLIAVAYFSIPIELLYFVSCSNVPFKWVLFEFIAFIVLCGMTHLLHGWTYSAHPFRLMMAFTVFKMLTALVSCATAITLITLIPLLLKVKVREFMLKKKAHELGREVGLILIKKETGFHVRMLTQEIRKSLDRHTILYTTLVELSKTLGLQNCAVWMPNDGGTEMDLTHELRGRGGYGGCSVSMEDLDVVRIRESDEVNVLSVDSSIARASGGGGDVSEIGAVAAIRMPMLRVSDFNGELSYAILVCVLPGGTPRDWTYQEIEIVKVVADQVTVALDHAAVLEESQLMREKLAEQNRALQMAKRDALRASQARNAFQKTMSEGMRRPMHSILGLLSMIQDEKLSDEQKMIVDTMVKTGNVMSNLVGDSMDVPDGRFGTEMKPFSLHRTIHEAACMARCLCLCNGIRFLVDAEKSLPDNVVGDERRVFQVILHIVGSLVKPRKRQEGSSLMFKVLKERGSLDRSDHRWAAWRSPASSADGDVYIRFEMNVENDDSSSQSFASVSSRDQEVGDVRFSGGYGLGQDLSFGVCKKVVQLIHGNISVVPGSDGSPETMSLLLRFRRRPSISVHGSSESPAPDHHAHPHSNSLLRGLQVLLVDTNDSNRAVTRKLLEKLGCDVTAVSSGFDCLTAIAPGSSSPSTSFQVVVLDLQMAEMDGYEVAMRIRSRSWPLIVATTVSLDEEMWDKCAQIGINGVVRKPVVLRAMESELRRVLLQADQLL

[2] = target: T2, Arabidopsis thaliana ethylene receptor ETR1 (AtETR1), full-length, type-I subfamily (Arabidopsis thaliana, UniProt P49333 1-738, Alexa Fluor 488 succinimidyl-ester label where used as the labeled partner in MST); test: as above; details: both partners purified
T2 construct: ETR1, Arabidopsis thaliana, full-length receptor; source: recombinant, expressed and purified as described in Milić et al., 2018, in FosCholine-16
T2 sequence (looked up): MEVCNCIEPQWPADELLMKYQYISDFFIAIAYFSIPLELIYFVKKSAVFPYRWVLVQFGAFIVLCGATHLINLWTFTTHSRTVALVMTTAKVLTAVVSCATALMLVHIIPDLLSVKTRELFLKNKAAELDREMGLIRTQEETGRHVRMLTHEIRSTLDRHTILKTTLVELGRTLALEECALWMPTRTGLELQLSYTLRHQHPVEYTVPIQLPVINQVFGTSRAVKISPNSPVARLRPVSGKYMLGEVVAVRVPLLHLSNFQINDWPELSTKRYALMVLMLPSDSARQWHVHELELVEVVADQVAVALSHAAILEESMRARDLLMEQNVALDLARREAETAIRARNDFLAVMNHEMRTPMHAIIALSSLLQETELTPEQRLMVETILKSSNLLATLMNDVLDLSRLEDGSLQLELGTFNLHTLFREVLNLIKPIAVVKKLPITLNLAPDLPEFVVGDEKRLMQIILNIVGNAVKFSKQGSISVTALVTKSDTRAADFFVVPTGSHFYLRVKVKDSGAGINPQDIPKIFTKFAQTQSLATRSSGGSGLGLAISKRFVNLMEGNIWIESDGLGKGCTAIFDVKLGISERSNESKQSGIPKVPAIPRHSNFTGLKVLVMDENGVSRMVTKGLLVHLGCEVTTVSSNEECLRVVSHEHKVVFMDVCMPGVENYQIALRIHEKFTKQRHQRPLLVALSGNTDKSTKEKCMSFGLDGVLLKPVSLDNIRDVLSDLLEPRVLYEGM

B1: Isolated transmembrane domain of AtETR1 (aa 1-157) with C4S and C6S (domain or fragment, Arabidopsis thaliana, UniProt P49333 1-157, looked up)
chain: MEVSNSIEPQWPADELLMKYQYISDFFIAIAYFSIPLELIYFVKKSAVFPYRWVLVQFGAFIVLCGATHLINLWTFTTHSRTVALVMTTAKVLTAVVSCATALMLVHIIPDLLSVKTRELFLKNKAAELDREMGLIRTQEETGRHVRMLTHEIRSTL
notes: ETR1, Arabidopsis thaliana, transmembrane domain, residues 1-157, cysteines 4 and 6 changed to serine; also called ETR1-TM^C4SC6S; AtETR1-TM^C4SC6S
- binding result [1]: binds
- binding result [2]: binds
